# Test results taken from article PMC6317994 (Cell reports, 2018).
# T1: Flag-tagged N-terminal domain of TET2 (residues 1–1127) (human, UniProt Q6N021 1-1127)
# T1 sequence: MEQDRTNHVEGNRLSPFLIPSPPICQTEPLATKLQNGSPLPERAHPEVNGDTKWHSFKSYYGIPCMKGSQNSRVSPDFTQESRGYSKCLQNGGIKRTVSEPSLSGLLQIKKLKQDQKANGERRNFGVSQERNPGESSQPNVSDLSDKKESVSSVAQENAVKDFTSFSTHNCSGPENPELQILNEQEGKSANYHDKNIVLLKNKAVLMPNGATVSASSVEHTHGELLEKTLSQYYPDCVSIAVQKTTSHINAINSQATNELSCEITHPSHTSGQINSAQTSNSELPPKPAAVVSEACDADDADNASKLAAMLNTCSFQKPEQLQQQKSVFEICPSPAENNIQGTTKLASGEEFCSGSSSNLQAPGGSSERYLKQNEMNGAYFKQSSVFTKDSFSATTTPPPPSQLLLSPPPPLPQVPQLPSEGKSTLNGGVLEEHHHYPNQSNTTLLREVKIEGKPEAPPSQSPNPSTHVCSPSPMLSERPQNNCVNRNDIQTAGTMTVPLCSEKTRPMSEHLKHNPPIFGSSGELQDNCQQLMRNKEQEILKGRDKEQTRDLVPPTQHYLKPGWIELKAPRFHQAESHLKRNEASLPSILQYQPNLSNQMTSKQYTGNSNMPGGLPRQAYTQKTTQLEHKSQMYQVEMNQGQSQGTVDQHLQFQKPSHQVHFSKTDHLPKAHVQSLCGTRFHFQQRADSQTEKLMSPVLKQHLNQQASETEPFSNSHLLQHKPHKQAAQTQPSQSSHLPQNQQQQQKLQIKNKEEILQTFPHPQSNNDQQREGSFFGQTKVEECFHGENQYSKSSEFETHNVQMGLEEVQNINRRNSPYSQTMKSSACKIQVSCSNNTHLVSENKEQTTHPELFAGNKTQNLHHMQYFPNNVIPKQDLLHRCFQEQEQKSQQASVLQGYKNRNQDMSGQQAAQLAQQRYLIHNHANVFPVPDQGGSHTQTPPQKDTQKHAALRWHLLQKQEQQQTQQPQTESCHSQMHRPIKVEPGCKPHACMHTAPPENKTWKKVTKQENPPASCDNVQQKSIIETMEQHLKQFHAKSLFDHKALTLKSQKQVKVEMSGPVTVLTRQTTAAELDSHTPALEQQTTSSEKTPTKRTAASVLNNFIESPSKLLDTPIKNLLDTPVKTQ
# B1: SNIP1 purified from E. coli (GST tag removed) (natural protein)
# chain: MKAVKSERERGSRRRHRDGDVVLPAGVVVKQERLSPEVAPPAHRRPDHSGGSPSPPTSEPARSGHRGNRARGVSRSPPKKKNKASGRRSKSPRSKRNRSPHHSTVKVKQEREDHPRRGREDRQHREPSEQEHRRARNSDRDRHRGHSHQRRTSNERPGSGQGQGRDRDTQNLQAQEEEREFYNARRREHRQRNDVGGGGSESQELVPRPGGNNKEKEVPAKEKPSFELSGALLEDTNTFRGVVIKYSEPPEARIPKKRWRLYPFKNDEVLPVMYIHRQSAYLLGRHRRIADIPIDHPSCSKQHAVFQYRLVEYTRADGTVGRRVKPYIIDLGSGNGTFLNNKRIEPQRYYELKEKDVLKFGFSSREYVLLHESSDTSEIDRKDDEDEEEEEEVSDS
# Target: T1, Flag-tagged N-terminal domain of TET2 …
# Assay: pull-down
binder,measurement,value
B1,binding result,binds
